Assay results: publication PMC12802937

Columns and labels:
[1] = target: RNF-MD S5i (E766K in RNF20 and K57E/R804E in RNF40) (human) (UniProt Q5VTR2); experiment: SPR; RNF-MD immobilised on a CM5 chip, intein-WAC flown over; Biacore 8K, 25°C, 20 mM HEPES (pH 7.5), 200 mM sodium chloride, 0.02% Tween 20
[2] = target: RNF-MD S4i (D780K in RNF20) (human) (UniProt Q5VTR2); experiment: as above

Row | Kd [1] | koff [1] | kon [1] | Kd [2] | koff [2] | kon [2] | Binder
1 | 464 nM | 0.0142 s⁻¹ | 30500 M⁻¹ s⁻¹ | – | – | – | intein-CBD-tagged WAC-CT (WAC residues 570–647) (domain or fragment) HVQGWPADHAEKQASRLREEAHNMGTIHMSEICTELKNLRSLVRVCEIQATLREQRILFLRQQIKELEKLKNQNSFMV
2 | – | – | – | 249 nM | 0.0435 s⁻¹ | 17500 M⁻¹ s⁻¹ | intein-WAC S4 (R630E) (domain or fragment) HVQGWPADHAEKQASRLREEAHNMGTIHMSEICTELKNLRSLVRVCEIQATLREQRILFLEQQIKELEKLKNQNSFMV
